Target: recombinant human soluble catechol-O-methyltransferase (human) (UniProt P21964)

An IC50 of inhibition of COMT activity (methyl transfer from 14C-SAM to DBA) of 1600 nM was found for bovine lactoferrin (natural protein) in this work.
